Here are results for two proteins from ChEMBL document CHEMBL3525919, “Potent inhibition of human sulfotransferase 1A1 by 17α-ethinylestradiol: role of 3'-phosphoadenosine 5'-phosphosulfate binding and structural rearrangements in regulating inhibition and activity” (Drug Metab Dispos, 2012).

Substrate in data set [1]: C[C@]12CC[C@@H]3c4ccc(O)cc4CC[C@H]3[C@@H]1CC[C@@H]2O
The experiment in a line: Activity of SULT1E1 (unknown origin). The format is ADME, Homo sapiens.

Substrate in data set [2]: C[C@]12CC[C@@H]3c4ccc(O)cc4CC[C@H]3[C@@H]1CC[C@@H]2O
The experiment in a line: Activity of human SULT1A1 expressed in Escherichia coli at 20 uM by Michaelis-Menten equation analysis in presence of PAPS. It is filed as ADME.

Substrate in data set [3]: C#C[C@]1(O)CC[C@H]2[C@@H]3CCc4cc(O)ccc4[C@H]3CC[C@@]21C
Description: Activity of human SULT1A1 expressed in Escherichia coli at 6 uM by Michaelis-Menten equation analysis in presence of PAPS. It is filed as ADME.

B1: Sulfotransferase 1E1 (Homo sapiens) (protein)
chain: MNSELDYYEKFEEVHGILMYKDFVKYWDNVEAFQARPDDLVIATYPKSGTTWVSEIVYMIYKEGDVEKCKEDVIFNRIPFLECRKENLMNGVKQLDEMNSPRIVKTHLPPELLPASFWEKDCKIIYLCRNAKDVAVSFYYFFLMVAGHPNPGSFPEFVEKFMQGQVPYGSWYKHVKSWWEKGKSPRVLFLFYEDLKEDIRKEVIKLIHFLERKPSEELVDRIIHHTSFQEMKNNPSTNYTTLPDEIMNQKLSPFMRKGITGDWKNHFTVALNEKFDKHYEQQMKESTLKFRTEI
Consider B1, for which the Km in data set [1] came to 0.004 µM.

B2: Sulfotransferase 1A1 (Homo sapiens) (protein)
chain: MELIQDTSRPPLEYVKGVPLIKYFAEALGPLQSFQARPDDLLISTYPKSGTTWVSQILDMIYQGGDLEKCHRAPIFMRVPFLEFKAPGIPSGMETLKDTPAPRLLKTHLPLALLPQTLLDQKVKVVYVARNAKDVAVSYYHFYHMAKVHPEPGTWDSFLEKFMVGEVSYGSWYQHVQEWWELSRTHPVLYLFYEDMKENPKREIQKILEFVGRSLPEETVDFVVQHTSFKEMKKNPMTNYTTVPQEFMDHSISPFMRKGMAGDWKTTFTVAQNERFDADYAEKMAGCSLSFRSEL
In the case of B2, the Km was determined as 0.36 µM in data set [2] and 0.45 µM in data set [3].
